Measurements published in US20050084449A1 (CELLDEX THERAPEUTICS, published 2005).

B1: anti-TIM-1 mAb 2.16 (antibody, V domains shown)
VH: EQSGGGVVKPGGSLRLSCAASGFTFSNAWMTWVRQAPGKGLEWVGRIKRRTDGGTTDYAAPVKGRFTISRDDSKNTLYLQMNNLKNEDTAVYYCTSVDNDVDYWGQGTLVTVSS
VL: not shown
notes: also called 2.16.1 (subclone)
B2: anti-TIM-1 mAb 2.70 (antibody, V domains shown)
VH: QVQLVESGGGVVQPGRSLRLSCAASGFIFSRYGMHWVRQAPGKGLKWVAVIWYDGSNKLYADSVKGRFTISRDNSKNTLYLQMNSLRAEDTAVYYCARDYYDNSRHHWGFDYWGQGTLVTVSS
VL: DIVMTQTPLSLPVTPGEPASISCRSSRSLLDSDDGNTYLDWYLQKPGQSPQLLIYTLSYRASGVPDRFSGSGSGTDFTLKISRVEAEDVGVYYCMQRVEFPITFGQGTRLEIKR
notes: Subclone 2.70.2 is treated as the same antibody because its printed variable regions are identical; also called 2.70.2 (subclone); TIM-1 2.70.2
B3: anti-TIM-1 mAb 2.59 (antibody, human IgG4, V domains shown)
VH: QSGPRLVKPSQTLSLTCTVSGGSISSDGYYWSWIRQHPGKGLEWIGYIYYSGSTFYNPSLKSRVAISVDTSKNQFSLKLSSVTAADTAVYYCARESPHSSNWYSGFDCWGQGTLVTVSS
VL: TQSPDFQSVTPKEKVTITCRASQSIGSRLHWYQQKPDQSPKLLIKYASQSFSGVPSRFSGSGSGTDFTLTINSLEAEDAATYYCHQSSNLPFTFGPGTKVDIKR
notes: Biotinylated for IHC
B4: anti-TIM-1 mAb 1.29 (antibody, human IgG2, V domains shown)
VH: QVQLQESGPGLVKPSETLSLTCTVSGGSVSSGGYYWSWIRQPPGKGLEWIGFIYYTGSTNYNPSLKSRVSISVDTSKNQFSLKLSSVTAADAAVYYCARDYDWSFHFDYWGQGTLVTVSS
VL: DIQMTQSPSSLSASIGDRVTITCRASQGIRNDLGWYQQKPGKAPKRLIYAASSLQSGVPSRFSGSGSGTEFTLTISSLQPEDFATYYCLQHNSYPLTFGGGTKVEIKR

Columns and labels:
[1] = target: T1, TIM-1 antigen, cell membrane-bound (on ACHN, CAKI-2, CAKI-1 renal cancer cells and polarized/activated human … (human, UniProt Q96D42 21-364)); experiment: FACS on ACHN cells, normalized to isotype control pK16
T1 construct: whole, on cells; Endogenous protein on cells; also called HAVcr-1; KIM-1
T1 sequence (looked up): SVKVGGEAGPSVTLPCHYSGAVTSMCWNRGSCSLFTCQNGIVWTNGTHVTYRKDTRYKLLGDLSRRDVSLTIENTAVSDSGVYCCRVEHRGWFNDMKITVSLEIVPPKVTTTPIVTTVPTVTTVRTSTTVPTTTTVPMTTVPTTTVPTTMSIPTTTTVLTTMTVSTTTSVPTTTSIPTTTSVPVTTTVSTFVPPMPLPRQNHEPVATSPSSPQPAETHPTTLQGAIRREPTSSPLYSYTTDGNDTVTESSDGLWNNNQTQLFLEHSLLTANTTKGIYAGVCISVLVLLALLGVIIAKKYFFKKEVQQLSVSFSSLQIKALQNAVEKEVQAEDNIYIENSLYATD

[2] = target: T2, TIM-1 peptide H) QNHEPVAT (human); experiment: peptide ELISA
T2 peptide: QNHEPVAT

TIM-1 peptide I) HEPVAT = target: T3, TIM-1 peptide I) HEPVAT (human); experiment: peptide ELISA
T3 peptide: HEPVAT

[3] = target: T4, TIM-1 peptide D) PMPLPRQN (human); experiment: peptide ELISA
T4 peptide: PMPLPRQN

[4] = target: T5, TIM-1 peptide G) PRQNHEPVAT (human); experiment: peptide ELISA
T5 peptide: PRQNHEPVAT

TIM-1 peptide E) PMPLPR = target: T6, TIM-1 peptide E) PMPLPR (human); experiment: peptide ELISA
T6 peptide: PMPLPR

[5] = target: T1, TIM-1 antigen, cell membrane-bound (on …); experiment: FACS on polarized human CD4+ Th2 cells, 10 ug/mL mAb
[6] = target: T7, synthetic peptide PMPLARQNHE (SEQ ID NO:99); experiment: peptide ELISA, alanine scan
T7 peptide: PMPLARQNHE

[7] = target: T8, synthetic peptide PMPLPRQAHE (SEQ ID NO:102); experiment: peptide ELISA, alanine scan
T8 peptide: PMPLPRQAHE

[8] = target: T1, TIM-1 antigen, cell membrane-bound (on …); experiment: FACS on CAKI-2 cells, normalized to isotype control pK16

Geo Mean Ratio (relative to negative control) [1]	binding result [2]	binding result (TIM-1 peptide I) HEPVAT)	binding result [3]	binding result [4]	binding result (TIM-1 peptide E) PMPLPR)	Geometric mean of fluorescence intensity [5]	binding result [6]	binding result [7]	Geo Mean Ratio (relative to negative control) [8]	Binder
7.9 ratio	–	–	–	–	–	–	–	–	–	B1
19.4 ratio	no binding	no binding	no binding	no binding	no binding	27.8	no binding	no binding	8.8 ratio	B2
15.2 ratio	–	–	–	–	–	22	–	–	7.7 ratio	B3
17.9 ratio	–	–	–	–	–	22.3	–	–	–	B4
